Data taken from US20250289871A1 (AstraZeneca / MedImmune, published 2025).

Experiments:
[1] = target: BA.2 spike protein (pseudovirus) (SARS-CoV-2); experiment: cell-based or functional assay
[2] = target: Omicron (BA.1) spike protein (pseudovirus) (SARS-CoV-2); experiment: cell-based or functional assay
[3] = target: BA1.1 spike protein (pseudovirus) (SARS-CoV-2); experiment: cell-based or functional assay
[4] = target: Delta spike protein (pseudovirus) (SARS-CoV-2); experiment: cell-based or functional assay
[5] = target: D614G spike protein (pseudovirus) (SARS-CoV-2); experiment: cell-based or functional assay
[6] = target: SARS-CoV-2 spike RBD point mutant F486A (SARS-CoV-2, UniProt P0DTC2 334-526)
[7] = target: SARS-CoV-2 spike RBD point mutant K444A (SARS-CoV-2, UniProt P0DTC2 334-526)
[8] = target: SARS-CoV-2 BA.1 spike protein (authentic virus) (SARS-CoV-2, UniProt P0DTC2 14-1273); experiment: cell-based or functional assay
[9] = target: SARS-CoV-2 Alpha spike protein (authentic virus) (SARS-CoV-2, UniProt P0DTC2 14-1273); experiment: cell-based or functional assay
[10] = target: SARS-CoV-2 D614G spike protein (authentic virus) (SARS-CoV-2, UniProt P0DTC2 14-1273); experiment: cell-based or functional assay
[11] = target: SARS-CoV-2 BA.1.1 spike protein (authentic virus) (SARS-CoV-2, UniProt P0DTC2 14-1273); experiment: cell-based or functional assay
[12] = target: SARS-CoV-2 BA.2 spike protein (authentic virus) (SARS-CoV-2, UniProt P0DTC2 14-1273); experiment: cell-based or functional assay
[13] = target: SARS-CoV-2 BA.5 spike protein (authentic virus) (SARS-CoV-2, UniProt P0DTC2 14-1273); experiment: cell-based or functional assay
[14] = target: T1, SARS-CoV-2 BA.2.12.1 spike protein (authentic virus) (SARS-CoV-2, UniProt P0DTC2 14-1273); experiment: cell-based or functional assay
[15] = target: BA.2.12.1 spike protein (pseudovirus) (SARS-CoV-2); experiment: cell-based or functional assay
[16] = target: T1, SARS-CoV-2 BA.2.12.1 spike protein …; experiment: cell-based or functional assay; remark: listed apart in the source

B1: RQ40 (TM-YTE) (antibody, V domains shown)
VH: EVQLVESGAEVKKPGSSVKVSCKASGGTFSSYAINWVRQAPGQGLEWMGGIIPIFRTPHYAQKFQGRVTITADESTGTAYMELSSLRSEDTAVYYCASPSCGGDCPQYLKSSKLDWYFDLWGRGTLVTVSS
VL: VIWMTQSPGTLSLSPGERATLSCRASQSVSSTYLAWYQQKPGQAPRLLIYGASSRATGIPDRFSGSGSGTDFTLTISRLEPEDFAVYYCQHYGSSPLTFGQGTRLEIK
- EC50, pseudovirus neutralization [1]: 7 ng/mL
- EC50, pseudovirus neutralization [2]: 6.4 ng/mL
- EC50, pseudovirus neutralization [3]: 4.2 ng/mL
- EC50, pseudovirus neutralization [4]: 11.2 ng/mL
- EC50, pseudovirus neutralization [5]: 9.9 ng/mL
- Kd [6]: 47.1 nM
- Kd [7]: < 0.001 nM

B2: RQ43-GL-H-LO1 (TM-YTE) (antibody, V domains shown)
VH: EVQLVESGGGLVQPGRSLRLSCAASGFPFDDYAIHWVRLAPGKGLEWVSSISWDSGSIGYADSVKGRFTISRDNAKNSLYLQMNSLRAEDTALYYCAKGAFPGYSSGWYYGLEVWGQGTTVTVSS
VL: QSVVTQPPSASGSLGQSVTISCTGTSSDVGGYNYVSWYQQHPGKAPKLMIFEVSKRPSGVPDRFSGSKSGNTASLTVSGLQAEDEADYYCSSYAGNKGVFGGGTKLTVL
- Authentic Virus Neutralization IC50 [8]: 11 ng/mL
- Authentic Virus Neutralization IC50 [9]: 60 ng/mL
- Authentic Virus Neutralization IC50 [10]: 99 ng/mL
- Authentic Virus Neutralization IC50 [11]: 7 ng/mL
- Authentic Virus Neutralization IC50 [12]: 31 ng/mL
- Authentic Virus Neutralization IC50 [13]: 17 ng/mL
- Authentic Virus Neutralization IC50 [14]: 28 ng/mL
- IC50 (read off the curve), pseudovirus with BA.2.12.1 spike [15]: ~8 ng/mL

B3: RQ43 (TM-YTE) (antibody, V domains shown)
VH: EVQLLETGGGLVQPGRSLRLSCAASGFPFDDYAIHWVRLAPGKGLEWVSSISWDSGSIGYADSVKGRFTISRDNAKNSLYLQMNSLRAEDTALYYCAKGAFPGYSSGWYYGLDVWGQGATVTVSS
VL: QSVVTQPPSASGSLGQSVTISCTGTSSDVGGYNYVSWYQQHPGKAPKLMIFEVSKRPSGVPDRFSGSKSGNTASLTVSGLQAEDEADYYCSSYAGNKGVFGGGTKLTVL
- EC50, pseudovirus neutralization [1]: 10.5 ng/mL
- EC50, pseudovirus neutralization [2]: 7.8 ng/mL
- EC50, pseudovirus neutralization [3]: 6 ng/mL
- EC50, pseudovirus neutralization [4]: 25.9 ng/mL
- EC50, pseudovirus neutralization [5]: 15.8 ng/mL
- Kd [6]: < 0.001 nM
- Kd [7]: < 0.001 nM

B4: RQ33 (TM-YTE) (antibody, V domains shown)
VH: QVQLQESGPGLVKPSETLSLTCTVFGGSITSSNHYWVWIRQPPGKGLEWIGSMYYSGSTAYNPSLTNRVTISVDTSKNQFSLKLSSVTAADTAVYYCARQIGPKRPSQVADWFDPWGQGTLVTVSS
VL: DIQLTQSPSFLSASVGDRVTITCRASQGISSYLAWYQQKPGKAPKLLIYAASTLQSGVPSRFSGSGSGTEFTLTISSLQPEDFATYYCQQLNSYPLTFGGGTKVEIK
- IC50 (read off the curve), FRNT, authentic BA.2.12.1 virus [16]: ~500 ng/mL
- EC50, pseudovirus neutralization [1]: 79.7 ng/mL
- EC50, pseudovirus neutralization [2]: 4.5 ng/mL
- EC50, pseudovirus neutralization [3]: 3.1 ng/mL
- EC50, pseudovirus neutralization [4]: 205 ng/mL
- EC50, pseudovirus neutralization [5]: 191 ng/mL
- IC50 (read off the curve), pseudovirus with BA.2.12.1 spike [15]: ~50 ng/mL
- Kd [6]: 3.28 nM
- Kd [7]: 3.13 nM

B5: RQ41 (TM-YTE) (antibody, V domains shown)
VH: EVQLVESGGGLIQPGGSLRLSCAASEIIVSRNYMSWVRQAPGKGLEWVSVIYSGGSTFYADSVKGRFTISRDNSKNTLYLQMNSLRAEDTAVYYCARDLDVVGGTDYWGQGTLVTVSS
VL: not shown
- EC50, pseudovirus neutralization [1]: 12.6 ng/mL
- EC50, pseudovirus neutralization [2]: 6.2 ng/mL
- EC50, pseudovirus neutralization [3]: 3.9 ng/mL
- EC50, pseudovirus neutralization [4]: 18.2 ng/mL
- EC50, pseudovirus neutralization [5]: 11 ng/mL
